In US9271932B2, “Fusogenic properties of saposin C and related proteins and peptides for application to transmembrane drug delivery systems” (CHILDREN'S HOSPITAL MEDICAL CENTER, priority 2006, dated 2016):
One block for each molecule: values may come before it.

Legend:
[1] = Vesicle size change determination (N4 plus submicron particle sizer); assay type: biochemical
Description: The amino acid residues 51-67 are necessary, but not sufficient, for its optimal enzymatic activation function. The disulfide structure and conformational alteration of saposin C upon lipid binding are also required for this activity. Three approaches are used for this study: (1) stopped-flow monitoring reduction of self-quenching resulting from fusion of fluorescence probe-containing vesicle with non-fluorescent vesicle induced by saposin C; (2) monitoring the lipid vesicle size changes upon addition of saposin C to vesicles, the size distribution as determined using N4 plus submicron particle sizer (Coulter Co.); (3) monitoring intrinsic fluorescence of Trp-saposin C change during liposomal fusion.
[…] is used for vesicle fusion analysis, since the size of fused vesicles is bigger than those of non-fused. N4 plus submicron particle size is used to estimate particle sizes in the range of 3 nm to 3 μm since most liposomes fit in this range. Sonication conditions with a cup sonicator give mono-dispersed BPS-liposomes with ˜200 nm in size. Upon addition of saposin C, these vesicles change to a larger size up to 2-3 μm. The size increase is related to vesicles fusion as shown by the above dequenching experiments.
Saposin C promotes the size changes at ˜50 nM concentration. To define the regions responsible for this fusion property, peptides containing only 50% of the NH2-terminal or 50% of the COOH-terminal halves in saposin C are tested. Both peptides show fusion activity.

[2] = biological target: T1, acid β-glucosidase (Homo sapiens, UniProt P04062); test: Acid β-glucosidase activation in liposomal reconstitution system; assay type: biochemical
T1 sequence (P04062 40-536): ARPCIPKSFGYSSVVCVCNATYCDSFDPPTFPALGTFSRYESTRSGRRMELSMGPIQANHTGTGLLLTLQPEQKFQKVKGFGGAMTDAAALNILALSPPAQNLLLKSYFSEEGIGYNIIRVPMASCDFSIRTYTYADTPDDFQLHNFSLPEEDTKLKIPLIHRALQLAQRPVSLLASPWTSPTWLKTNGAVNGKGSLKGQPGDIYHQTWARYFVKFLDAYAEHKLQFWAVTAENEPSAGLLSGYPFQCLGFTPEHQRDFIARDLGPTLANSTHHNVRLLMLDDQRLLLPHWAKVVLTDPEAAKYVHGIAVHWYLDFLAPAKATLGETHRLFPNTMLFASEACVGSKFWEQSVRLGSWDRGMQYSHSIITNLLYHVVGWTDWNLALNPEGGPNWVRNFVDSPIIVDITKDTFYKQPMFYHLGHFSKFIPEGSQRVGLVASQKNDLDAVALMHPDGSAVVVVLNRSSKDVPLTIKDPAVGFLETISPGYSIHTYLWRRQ
Protocol: Functional saposins were overexpressed in BL21(DE3) cells using a pET 21a series vector. Following IPTG induction at 37° C. or 30° C., large amounts of saposins containing His-Tag were found in the soluble fraction of the disrupted cells. These were conveniently purified to electrophoretic homogeneity on nickel-loaded columns. Alternatively, saposins without His-Tag were generated by introducing a stop codon after protein coding region, and then purified using immuno-affinity columns with T7-taq monoclonal antibody. […] Circular dichroism spectra, light scattering, and ES-MS analyses were used to evaluate the physical properties of the purified saposins, such as aggregation status and molecular weight. Trp-saposins without His-Tag were also generated for necessary control experiments. The functional integrity of recombinant saposin C is determined using delipidated and homogenous acid β-glucosidase in a liposomal reconstitution system and in neuritogenic assays. Recombinant saposin B function is determined using a sulfatide binding assay.

[3] = Fluorescence stopped-flow of saposin C binding to PS vesicles; conditions: PS(18:1,1) or BPS vesicles
Description: To investigate temporal and spatial interactions of saposins and liposomal membrane, fluorescence stopped-flow and quenching approaches are used with Trp as the intrinsic fluorescence probe of the saposins. These experiments allow identification of regional interactions between saposins and lipid bilayers, and also the kinetics of their binding.
This binding induces change is lipid-concentration dependent and requires at least one unsaturated fatty acid chain. To evaluate the kinetics of this interaction, stopped-flow experiments are conducted the change in fluorescence during saposin C/liposome complex formation is monitored. When saposin C(0W) is mixed with PS(18:1,1) or BPS vesicles, fluorescence of Trp is increased, but the time course of this change is undetectable due to limitation of the machine's capability. Apparently, the interaction of saposin C and unsaturated PS containing membranes occurs within at least 10 ms.

[4] = Saposin C-PS(18:1,1) liposome complex: stability and mechanism of fusion; assay type: biochemical
Protocol: Protein conformational changes are thought to play a role in protein-mediated membrane fusion. This fusion mechanism is evaluated using saposin C-dependent membrane fusion. First, saposin C—PS(18:1,1) liposome complexes are formed. In this saposin C-anchored membrane, protein conformation is altered. This complex is stable from pH 3 to 10, and in low concentrations of SDS solution.
Since the Trp in saposin C(0W) is embedded inside of lipid bilayer, the change of its signal is indicative of that the surrounding environment of Trp has been changed. After about 20 to 30 ms, Trp fluorescence signal decreases to the starting level. […] Shortly after this, the signal drops back to starting level signaling on end of the fusion process. […] Therefore, a conformational change of saposin C upon lipid binding is […] for its fusogenic activity.

[5] = test system: cultured mouse cortical and hippocampal neurons; test: Transport of saposin C into cultured neurons by DOPS liposomes; assay type: cell-based; conditions: facilitated by complexes with DOPS liposomes
Protocol: Saposin C can be transported into endosomal and lysosomal compartments using saposin-C liposomes containing long-chain anionic phospholipids. This method can be used for the treatment of neurological diseases including, for example, those in which MVB accumulation contributes to pathology and progression of disease.
Primary Cortical Neuron Cultures—Cortical neurons are cultured in serum-free Neuroblasal medium with B27 supplements as described by Whitmarsh et al.^44 Take out E16 mouse embryos, cut the head and place them into ice-cold Ca/Mg-free Hank Balance Salt Solution (HBSS) with papain (1 mg/ml). The brain is dissected out and place scalpel along the dorsal midline between the two cerebral hemispheres but slightly deviate towards to the side as it cut. This will give a clean cerebral cortex. […]
Immunofluorescence staining is done as described with minor modification.^15 Cultured cells (1×10^5) in a dish with coverslips are washed with PBS and fixed with 2% paraformaldehyde for 10 min at room temperature. After treating with 0.1% Triton X-100 in PBS, the samples are incubated with each respective primary antiserum (for 2 h) and fluorescence-conjugated secondary antibody (for 1 h) at 37° C. […] Antifade is added on the section to prevent the fluorescence quenching. Fluorescence signals are detected by a confocal microscopy (LSM510, Zeiss) or a fluorescence microscopy (Zeiss Axioskop).

[6] = R18 dequenching stopped-flow liposomal fusion assay; assay type: biochemical; conditions: unsaturated PS(18:1,1) vesicles, compared with Ca^2+
Description: Fluorescence probes have been widely used to determine membrane fusion, such as fluorescence dequenching, and fluorescence resonance energy transfer (FET), and can be used for quantitative and kinetics analyses. The dequenching approach is used to investigate saposin C's fusogenic activity. Octadecyl rhodamine B (R18) is selected as fluorescence probe and is entrapped in internal aqueous compartment of liposomal vesicles by co-sonication with BPS or PS(18:1,1).
Fluorescence increase (dequenching) of R18 occurs upon R18 concentration decreases. After non-labeled and labeled vesicles fuse, the R18 concentration is diluted, resulting in an increase in intensity of fluorescence. R18-labeled vesicles (lipid:R18=96:4, mol:mol) are mixed with the same lipid vesicles without fluorescence probe. Stopped-flow assays are conducted to quickly mix these vesicles with saposin C or Ca^2+ ion. Time-trace curves are generated for kinetic analysis. […] Fusion occurs extensively when reaction temperature is above the phase Transition temperature (Tc) of phospholipids. The Tc of synthetic PS(18:1) is about −11° C., while the Tc of PS(18:0) is very high (68° C.). Thus, the lipid bilayer phase of PS(18:1,1) is different to that of BPS(18:0 and 18:1) at 24° C.

activation of acid β-glucosidase [2]: excellent activation
time within which interaction with unsaturated PS containing membranes occurs [3]: ≤ 10 ms
B1: Saposin C: Recombinant saposin C, prosaposin-derived fusogenic lysosomal protein, expressed in E. coli (His-tag) (protein, listed as Homo sapiens)
chain: SDVYCEVCEFLVKEVTKLIDNNKTEKEILDAFDKMCSKLPKSLSEECQEVVDTYGSSILSILLEEVSPELVCSMLHLCSG
modifications: His-tag
concentration promoting the size changes ([1]; BPS-liposomes): ~50 nM
vesicle size after addition of saposin C ([1]; mono-dispersed BPS-liposomes of ~200 nm before addition): 2-3 μm
vesicle size enlargement ([1]; pH 4.7, over a 10 min period): enlarges vesicle size
vesicle size enlargement ([1]; pH 7.4, over a 10 min period): not at pH 7.4
fusogenic activity when bound to lipid membrane [4]: retains the fusogenic activity
transport into neurons [5]: can be transported into the cultured mouse cortical and hippocampal neurons
kinetics of induced membrane fusion [6]: same kinetics as those with Ca^2+

effect of Trp substitutions on activation properties [2]: no effect
B2: Saposin C(S37W): saposin C with a Trp at residue 37 (in the middle) (protein, UniProt P07602 311-390, looked up, variant S37W)
Saposin-C: SDVYCEVCEFLVKEVTKLIDNNKTEKEILDAFDKMCWKLPKSLSEECQEVVDTYGSSILSILLEEVSPELVCSMLHLCSG
modifications: Saposin-C

B3: Saposin C + Phosphatidylserine (18:1, 1): saposin C complexed with acidic, unsaturated phosphatidylserine PS(18:1,1) liposomes (protein, UniProt P07602 311-390, looked up)
Saposin-C: SDVYCEVCEFLVKEVTKLIDNNKTEKEILDAFDKMCSKLPKSLSEECQEVVDTYGSSILSILLEEVSPELVCSMLHLCSG
modifications: Saposin-C complexed with phosphatidylserine liposomes
notes: saposin C complexed with acidic, unsaturated phosphatidylserine PS(18:1,1) liposomes
stability in low concentrations of SDS solution [4]: stable
